Data as given in paper PMC8345109, “Optimization of New Catalytic Topoisomerase II Inhibitors as an Anti-Cancer Therapy” (Cancers, 2021).

Legend:
TOP2A full-length = TOP2A full-length (Homo sapiens, UniProt P11388 1-1531); assay: EMSA; 200 uM ICRF193; FP: 20 mM HEPES-NaOH pH 7.4, 2 mM DTT, 3 mM MgCl2, 0.05% NP-40, protease inhibitors, room temperature 20 min; EMSA buffer not in material; conditions: protein: recombinant; label: IRDye700 (printed IRDay700); blunt; self-complementary 20-mer, 2 copies
TOP2B full-length = TOP2B full-length (Homo sapiens, UniProt Q02880 1-1626); assay: as above; conditions: protein: recombinant; label: IRDye700 (printed IRDay700); blunt; self-complementary 20-mer, 2 copies
TOP2A(431-1193) = TOP2A(431-1193) (Homo sapiens, UniProt P11388 431-1193); assay: EMSA; merbarone; FP: 20 mM HEPES-NaOH pH 7.4, 2 mM DTT, 3 mM MgCl2, 0.05% NP-40, protease inhibitors, room temperature 20 min; EMSA buffer not in material; conditions: protein: recombinant; tags: N-terminal 6xHis (pET28a); label: IRDye700 (printed IRDay700); blunt; self-complementary 20-mer, 2 copies

Measured: binding result

TOP2B full-length, sequence (Q02880 whole entry): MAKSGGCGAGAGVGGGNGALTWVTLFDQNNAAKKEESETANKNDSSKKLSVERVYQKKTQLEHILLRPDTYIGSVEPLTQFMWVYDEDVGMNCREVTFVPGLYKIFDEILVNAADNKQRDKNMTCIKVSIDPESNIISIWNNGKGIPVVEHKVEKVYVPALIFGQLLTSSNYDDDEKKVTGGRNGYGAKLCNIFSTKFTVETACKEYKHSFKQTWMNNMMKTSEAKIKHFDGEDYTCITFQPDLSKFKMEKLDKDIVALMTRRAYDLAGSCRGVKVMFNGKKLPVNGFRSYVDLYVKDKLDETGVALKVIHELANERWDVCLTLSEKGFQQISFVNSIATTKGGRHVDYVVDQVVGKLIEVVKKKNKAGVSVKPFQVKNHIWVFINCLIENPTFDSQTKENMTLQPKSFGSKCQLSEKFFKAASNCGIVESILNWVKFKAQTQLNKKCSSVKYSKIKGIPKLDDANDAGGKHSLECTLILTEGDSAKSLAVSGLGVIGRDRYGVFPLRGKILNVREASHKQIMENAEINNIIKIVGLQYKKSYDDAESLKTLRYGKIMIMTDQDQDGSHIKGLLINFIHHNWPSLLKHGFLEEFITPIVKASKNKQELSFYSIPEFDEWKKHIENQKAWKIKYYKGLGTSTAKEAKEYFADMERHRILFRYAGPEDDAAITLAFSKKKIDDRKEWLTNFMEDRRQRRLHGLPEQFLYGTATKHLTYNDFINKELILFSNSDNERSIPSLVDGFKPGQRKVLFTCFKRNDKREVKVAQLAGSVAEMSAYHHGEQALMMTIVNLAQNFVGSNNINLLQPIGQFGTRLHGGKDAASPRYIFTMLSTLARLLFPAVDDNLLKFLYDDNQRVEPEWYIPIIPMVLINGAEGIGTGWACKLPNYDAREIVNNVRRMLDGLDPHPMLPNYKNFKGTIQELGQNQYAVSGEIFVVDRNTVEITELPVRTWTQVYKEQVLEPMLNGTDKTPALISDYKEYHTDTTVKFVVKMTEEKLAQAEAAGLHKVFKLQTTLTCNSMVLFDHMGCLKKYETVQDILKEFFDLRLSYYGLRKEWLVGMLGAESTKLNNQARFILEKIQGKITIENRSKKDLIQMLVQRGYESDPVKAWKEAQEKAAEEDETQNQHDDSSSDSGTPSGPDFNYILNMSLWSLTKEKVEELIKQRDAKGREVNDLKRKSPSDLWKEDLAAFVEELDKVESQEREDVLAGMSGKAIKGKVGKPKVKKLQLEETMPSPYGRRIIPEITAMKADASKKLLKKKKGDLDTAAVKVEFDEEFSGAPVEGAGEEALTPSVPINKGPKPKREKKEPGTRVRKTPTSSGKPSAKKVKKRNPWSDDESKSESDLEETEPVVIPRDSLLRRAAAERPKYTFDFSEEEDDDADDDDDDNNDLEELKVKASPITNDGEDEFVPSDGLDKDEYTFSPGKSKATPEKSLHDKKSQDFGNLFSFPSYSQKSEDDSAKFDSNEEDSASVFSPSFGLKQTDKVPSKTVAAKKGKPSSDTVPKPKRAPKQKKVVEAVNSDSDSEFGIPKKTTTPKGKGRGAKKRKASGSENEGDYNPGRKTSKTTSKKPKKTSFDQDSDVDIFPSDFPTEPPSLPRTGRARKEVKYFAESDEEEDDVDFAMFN
TOP2A(431-1193), sequence (P11388 431-1193): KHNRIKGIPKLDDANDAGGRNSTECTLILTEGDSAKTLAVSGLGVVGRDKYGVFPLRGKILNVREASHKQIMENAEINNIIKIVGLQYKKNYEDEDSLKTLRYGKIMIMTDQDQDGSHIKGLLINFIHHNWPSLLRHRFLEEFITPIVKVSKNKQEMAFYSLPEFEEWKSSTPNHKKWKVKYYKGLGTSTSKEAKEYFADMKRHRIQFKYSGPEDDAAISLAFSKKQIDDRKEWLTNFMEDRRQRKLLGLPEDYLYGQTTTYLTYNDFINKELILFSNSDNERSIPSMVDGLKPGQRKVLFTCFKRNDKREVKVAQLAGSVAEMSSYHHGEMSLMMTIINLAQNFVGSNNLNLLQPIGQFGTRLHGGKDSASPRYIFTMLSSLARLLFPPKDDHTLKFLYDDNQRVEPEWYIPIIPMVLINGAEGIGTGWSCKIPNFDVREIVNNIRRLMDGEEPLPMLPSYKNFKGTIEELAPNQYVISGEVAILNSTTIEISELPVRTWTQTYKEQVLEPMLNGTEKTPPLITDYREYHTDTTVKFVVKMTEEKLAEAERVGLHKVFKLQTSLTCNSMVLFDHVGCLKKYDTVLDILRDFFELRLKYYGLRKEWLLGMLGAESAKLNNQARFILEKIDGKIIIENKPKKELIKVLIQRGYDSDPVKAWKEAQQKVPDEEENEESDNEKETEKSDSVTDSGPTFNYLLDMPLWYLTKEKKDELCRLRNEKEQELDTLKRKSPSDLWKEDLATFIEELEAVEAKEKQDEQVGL
TOP2A full-length, sequence (P11388 whole entry): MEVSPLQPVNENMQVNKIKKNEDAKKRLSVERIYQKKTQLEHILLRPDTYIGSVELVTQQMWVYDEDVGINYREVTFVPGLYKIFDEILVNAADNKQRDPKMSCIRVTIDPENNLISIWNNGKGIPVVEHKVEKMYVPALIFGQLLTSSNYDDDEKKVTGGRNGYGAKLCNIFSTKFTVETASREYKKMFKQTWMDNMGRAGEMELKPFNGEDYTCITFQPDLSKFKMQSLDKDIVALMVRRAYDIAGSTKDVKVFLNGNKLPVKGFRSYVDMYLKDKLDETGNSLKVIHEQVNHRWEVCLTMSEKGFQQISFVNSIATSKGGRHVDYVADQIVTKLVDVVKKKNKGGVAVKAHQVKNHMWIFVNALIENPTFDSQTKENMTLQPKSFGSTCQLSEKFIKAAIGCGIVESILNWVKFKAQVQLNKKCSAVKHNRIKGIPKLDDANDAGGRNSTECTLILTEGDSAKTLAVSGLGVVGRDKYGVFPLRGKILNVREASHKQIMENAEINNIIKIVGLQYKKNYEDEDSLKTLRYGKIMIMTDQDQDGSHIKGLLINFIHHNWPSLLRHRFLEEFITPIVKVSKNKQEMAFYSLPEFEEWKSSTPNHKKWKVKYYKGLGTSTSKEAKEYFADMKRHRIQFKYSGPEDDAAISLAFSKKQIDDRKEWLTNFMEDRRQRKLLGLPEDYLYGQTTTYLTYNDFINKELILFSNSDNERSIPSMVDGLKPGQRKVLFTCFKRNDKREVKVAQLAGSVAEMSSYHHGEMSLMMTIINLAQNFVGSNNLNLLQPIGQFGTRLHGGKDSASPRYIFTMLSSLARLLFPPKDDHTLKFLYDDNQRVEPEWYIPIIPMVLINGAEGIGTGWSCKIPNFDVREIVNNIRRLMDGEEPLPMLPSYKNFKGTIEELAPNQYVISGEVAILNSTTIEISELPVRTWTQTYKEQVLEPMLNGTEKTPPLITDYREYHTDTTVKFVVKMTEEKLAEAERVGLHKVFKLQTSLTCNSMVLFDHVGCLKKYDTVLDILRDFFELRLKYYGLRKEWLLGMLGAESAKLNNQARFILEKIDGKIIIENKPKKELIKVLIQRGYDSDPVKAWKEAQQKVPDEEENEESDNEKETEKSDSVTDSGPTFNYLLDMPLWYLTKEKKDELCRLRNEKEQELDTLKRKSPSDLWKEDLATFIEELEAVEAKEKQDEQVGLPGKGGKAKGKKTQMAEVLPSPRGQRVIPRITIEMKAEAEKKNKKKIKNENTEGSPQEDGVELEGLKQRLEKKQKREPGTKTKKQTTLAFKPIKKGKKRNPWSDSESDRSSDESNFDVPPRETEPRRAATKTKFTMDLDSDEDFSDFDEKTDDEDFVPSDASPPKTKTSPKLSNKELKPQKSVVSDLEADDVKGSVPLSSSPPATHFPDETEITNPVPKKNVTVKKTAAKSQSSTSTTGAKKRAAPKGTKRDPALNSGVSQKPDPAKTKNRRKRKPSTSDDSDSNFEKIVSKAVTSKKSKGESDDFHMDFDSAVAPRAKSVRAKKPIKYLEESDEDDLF

B1: 5ZRF DNA oligo (IRDye700) (dsDNA)
DNA 1: AGCCGAGCTGCAGCTCGGCT
DNA 2: AGCCGAGCTGCAGCTCGGCT
binds: TOP2A full-length | TOP2B full-length | TOP2A(431-1193)
